Where “and” joins values, the source holds several entries; their conditions need not be identical. Equal entries are not always repeated.
What was measured:
[1] = target: bovine submaxillary mucin (BSM), TAG-72-positive (bovine); test: competition RIA, 125I-labeled nCC49 as competitor, BSM as target antigen; parameters: unit not given here
[2] = target: bovine submaxillary mucin (BSM), TAG-72-positive (bovine); test: relative affinity constant, competition RIA on BSM, Scatchard analysis
[3] = target: bovine submaxillary mucin (BSM), TAG-72-positive (bovine); test: radiolabeled antibody bound to BSM beads

B1: HuCC49* humanized CC49 monoclonal antibody (antibody, V domains shown)
VH: QVQLVQSGAEVVKPGASVKISCKASGYTFTDHAIHWVKQNPGQRLEWIGYFSPGNDDFKYNERFKGKATLTADTSASTAYVELSSLRSEDTAVYFCTRSLNMAYWGQGTLVTVSS
VL: DIVMSQSPDSLAVSLGERVTLNCKSSQSLLYSGNQKNYLAWYQQKPGQSPKLLIYWASARESGVPDRFSGSGSGTDFTLTISSVQAEDVAVYYCQQYYSYPLTFGAGTKLELK
With B1 the amount required for 50% competition [1] was 45, the Ka [2] was 6e+07 M⁻¹ and the percent bound [3] was > 85% and 85%.
